According to IntAct's records for PubMed 29187380:

Experiments:
vac14_human VAC14 = vac14_human VAC14 (UniProt Q08AM6)
dock7_human DOCK7 = dock7_human DOCK7 (UniProt Q96N67)
Sequence of UniProt Q96N67 (Q96N67 whole entry): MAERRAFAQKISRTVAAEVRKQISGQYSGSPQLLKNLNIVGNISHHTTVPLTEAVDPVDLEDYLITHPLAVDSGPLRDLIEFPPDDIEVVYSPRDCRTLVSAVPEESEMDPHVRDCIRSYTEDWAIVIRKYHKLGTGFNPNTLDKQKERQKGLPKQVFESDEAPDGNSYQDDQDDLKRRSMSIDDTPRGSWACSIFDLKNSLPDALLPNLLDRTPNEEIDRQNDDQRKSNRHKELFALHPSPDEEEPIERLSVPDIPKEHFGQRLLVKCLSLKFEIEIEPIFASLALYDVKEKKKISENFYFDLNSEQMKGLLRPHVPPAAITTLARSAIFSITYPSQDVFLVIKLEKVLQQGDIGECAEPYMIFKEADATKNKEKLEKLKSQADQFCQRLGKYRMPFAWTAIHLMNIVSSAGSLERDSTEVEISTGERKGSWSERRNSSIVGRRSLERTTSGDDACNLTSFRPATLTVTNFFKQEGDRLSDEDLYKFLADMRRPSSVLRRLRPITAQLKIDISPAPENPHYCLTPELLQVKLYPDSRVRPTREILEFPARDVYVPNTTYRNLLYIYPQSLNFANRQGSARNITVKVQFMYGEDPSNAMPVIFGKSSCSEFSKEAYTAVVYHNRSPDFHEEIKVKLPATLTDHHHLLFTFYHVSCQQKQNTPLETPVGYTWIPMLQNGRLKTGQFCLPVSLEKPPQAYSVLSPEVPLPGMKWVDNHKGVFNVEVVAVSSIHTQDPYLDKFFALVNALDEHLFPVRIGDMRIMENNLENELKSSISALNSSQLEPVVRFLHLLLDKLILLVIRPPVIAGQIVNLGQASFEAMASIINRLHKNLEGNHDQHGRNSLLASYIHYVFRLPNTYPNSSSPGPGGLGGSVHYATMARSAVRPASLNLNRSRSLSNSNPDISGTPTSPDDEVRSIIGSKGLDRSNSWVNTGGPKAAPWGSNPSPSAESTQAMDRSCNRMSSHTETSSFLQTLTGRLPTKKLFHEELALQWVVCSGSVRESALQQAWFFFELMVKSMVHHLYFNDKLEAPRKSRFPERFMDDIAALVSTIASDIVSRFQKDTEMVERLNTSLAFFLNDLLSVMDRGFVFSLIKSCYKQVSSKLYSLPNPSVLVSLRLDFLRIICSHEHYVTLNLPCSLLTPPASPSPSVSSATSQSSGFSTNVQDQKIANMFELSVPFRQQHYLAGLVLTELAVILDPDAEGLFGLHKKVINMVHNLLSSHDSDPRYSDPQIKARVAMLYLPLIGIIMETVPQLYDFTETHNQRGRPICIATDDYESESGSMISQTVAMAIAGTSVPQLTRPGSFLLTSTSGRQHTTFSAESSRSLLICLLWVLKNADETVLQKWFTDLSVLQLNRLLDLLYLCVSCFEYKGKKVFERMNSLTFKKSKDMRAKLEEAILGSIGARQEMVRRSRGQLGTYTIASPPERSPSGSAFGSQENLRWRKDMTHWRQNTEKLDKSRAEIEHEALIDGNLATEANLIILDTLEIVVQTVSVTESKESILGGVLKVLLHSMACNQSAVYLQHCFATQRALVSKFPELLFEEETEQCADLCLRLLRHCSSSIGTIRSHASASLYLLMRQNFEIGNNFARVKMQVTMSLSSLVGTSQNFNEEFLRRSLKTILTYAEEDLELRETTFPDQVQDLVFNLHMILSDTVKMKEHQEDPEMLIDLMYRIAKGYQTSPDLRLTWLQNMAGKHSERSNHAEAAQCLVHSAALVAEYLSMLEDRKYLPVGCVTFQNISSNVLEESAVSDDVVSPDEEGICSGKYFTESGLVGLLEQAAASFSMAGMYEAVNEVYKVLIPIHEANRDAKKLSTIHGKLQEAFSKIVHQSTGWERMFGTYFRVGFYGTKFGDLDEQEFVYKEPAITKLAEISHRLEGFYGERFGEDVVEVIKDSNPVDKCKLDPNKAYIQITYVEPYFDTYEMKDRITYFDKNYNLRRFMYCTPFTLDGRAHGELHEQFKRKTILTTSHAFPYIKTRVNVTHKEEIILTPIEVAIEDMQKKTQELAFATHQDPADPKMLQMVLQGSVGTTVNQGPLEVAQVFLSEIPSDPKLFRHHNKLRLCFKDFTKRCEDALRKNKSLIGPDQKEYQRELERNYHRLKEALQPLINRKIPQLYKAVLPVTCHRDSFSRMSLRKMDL

Sequence of UniProt Q08AM6 (Q08AM6 whole entry): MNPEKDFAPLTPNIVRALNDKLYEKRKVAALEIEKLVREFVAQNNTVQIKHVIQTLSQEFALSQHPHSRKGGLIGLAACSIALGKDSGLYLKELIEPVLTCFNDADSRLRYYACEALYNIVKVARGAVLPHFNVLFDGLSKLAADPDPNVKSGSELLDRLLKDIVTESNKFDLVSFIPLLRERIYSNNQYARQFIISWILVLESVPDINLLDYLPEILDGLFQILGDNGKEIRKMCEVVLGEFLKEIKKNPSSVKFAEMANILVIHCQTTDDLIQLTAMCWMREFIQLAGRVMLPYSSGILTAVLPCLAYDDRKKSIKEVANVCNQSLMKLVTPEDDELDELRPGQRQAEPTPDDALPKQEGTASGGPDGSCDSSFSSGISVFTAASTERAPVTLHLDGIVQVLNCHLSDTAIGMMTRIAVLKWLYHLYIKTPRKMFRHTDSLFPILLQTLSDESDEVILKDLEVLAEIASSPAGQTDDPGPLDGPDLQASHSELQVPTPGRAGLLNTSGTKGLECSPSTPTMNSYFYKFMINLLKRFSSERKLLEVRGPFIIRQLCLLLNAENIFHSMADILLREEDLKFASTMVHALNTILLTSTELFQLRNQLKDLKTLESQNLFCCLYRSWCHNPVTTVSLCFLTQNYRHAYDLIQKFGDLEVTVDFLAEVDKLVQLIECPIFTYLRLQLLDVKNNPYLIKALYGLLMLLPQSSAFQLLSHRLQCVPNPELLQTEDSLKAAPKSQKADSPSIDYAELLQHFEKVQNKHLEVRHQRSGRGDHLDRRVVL

effect of a mutation on the interaction (vac14_human VAC14) | effect of a mutation on the interaction (dock7_human DOCK7) | Substance
decreasing interaction strength | decreasing interaction strength | Neurobeachin-like protein 2 (Homo sapiens), Q6ZNJ1 G2290W;E2294G
decreasing interaction strength | with no effect | Neurobeachin-like protein 2 (Homo sapiens), Q6ZNJ1 M2080K
decreasing interaction strength | disrupting interaction strength | Neurobeachin-like protein 2 (Homo sapiens), Q6ZNJ1 P2100L
with no effect | disrupting interaction strength | Neurobeachin-like protein 2 (Homo sapiens), Q6ZNJ1 R2172H
increasing interaction strength | with no effect | Neurobeachin-like protein 2 (Homo sapiens), Q6ZNJ1 S2269L
